Measured values from US20180064808A1 (Hoffmann-La Roche, published 2018).

B1: DR5(5E11)-28H1 VHCL 2+2 (bispecific antibody, human IgG1, kappa)
heavy: not shown
light: EIVLTQSPGTLSLSPGERATLSCRASQSVSSSYLAWYQQKPGQAPRLLIYGASSRATGIPDRFSGSGSGTDFTLTISRLEPEDFAVYYCQQGTTHPITFGQGTKVEIKRTVAAPSVFIFPPSDEQLKSGTASVVCLLNNFYPREAKVQWKVDNALQSGNSQESVTEQDSKDSTYSLSSTLTLSKADYEKHKVYACEVTHQGLSSPVTKSFNRGEC
chain: EIVLTQSPGTLSLSPGERATLSCRASQSVSRSYLAWYQQKPGQAPRLLIIGASTRATGIPDRFSGSGSGTDFTLTISRLEPEDFAVYYCQQGQVIPPTFGQGTKVEIKSSASTKGPSVFPLAPSSKSTSGGTAALGCLVKDYFPEPVTVSWNSGALTSGVHTFPAVLQSSGLYSLSSVVTVPSSSLGTQTYICNVNHKPSNTKVDKKVEPKSCD
notes: 28H1 CrossFab domain (VHCL) fused to the C-terminus of the anti-DR5 (5E11) heavy chain by a (G4S)4 connector; also called DR5-FAP bispecific antibody; bispecific, tetravalent DR5-FAP CrossMab molecule
B2: DR5(5E11)-28H1 VHCL 2+2 P329GLALA (bispecific antibody, human IgG1, kappa, L234A L235A)
heavy: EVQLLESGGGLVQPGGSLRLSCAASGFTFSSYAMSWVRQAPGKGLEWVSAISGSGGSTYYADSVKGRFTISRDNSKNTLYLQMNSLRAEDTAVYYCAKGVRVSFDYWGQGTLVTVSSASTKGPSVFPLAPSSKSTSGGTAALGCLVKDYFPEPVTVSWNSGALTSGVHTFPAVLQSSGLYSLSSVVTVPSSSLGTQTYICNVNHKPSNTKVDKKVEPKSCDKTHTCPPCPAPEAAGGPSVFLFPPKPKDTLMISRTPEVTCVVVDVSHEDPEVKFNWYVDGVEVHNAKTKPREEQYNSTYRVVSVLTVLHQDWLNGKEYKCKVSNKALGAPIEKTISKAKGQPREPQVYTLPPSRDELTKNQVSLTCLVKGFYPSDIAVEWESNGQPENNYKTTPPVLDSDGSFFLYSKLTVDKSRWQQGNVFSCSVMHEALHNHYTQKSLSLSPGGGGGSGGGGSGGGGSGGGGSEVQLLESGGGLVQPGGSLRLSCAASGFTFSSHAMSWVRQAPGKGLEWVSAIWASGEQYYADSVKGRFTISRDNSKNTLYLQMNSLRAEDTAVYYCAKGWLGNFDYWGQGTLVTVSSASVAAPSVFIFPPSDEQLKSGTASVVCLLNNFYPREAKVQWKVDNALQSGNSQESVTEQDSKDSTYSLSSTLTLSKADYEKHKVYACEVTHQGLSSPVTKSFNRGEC
light: B1 light
chain: B1 chain
notes: As DR5(5E11)-28H1 VHCL 2+2, with removal of the C-terminal lysine and the P329G/LALA mutation in Fc; also called DR5-FAP bispecific antibody; bispecific, tetravalent DR5-FAP CrossMab molecule
B3: FAP binder 28H1 (IgG) (antibody, V domains shown)
VH: EVQLLESGGGLVQPGGSLRLSCAASGFTFSSHAMSWVRQAPGKGLEWVSAIWASGEQYYADSVKGRFTISRDNSKNTLYLQMNSLRAEDTAVYYCAKGWLGNFDYWGQGTLVTVSS
VL: EIVLTQSPGTLSLSPGERATLSCRASQSVSRSYLAWYQQKPGQAPRLLIIGASTRATGIPDRFSGSGSGTDFTLTISRLEPEDFAVYYCQQGQVIPPTFGQGTKVEIK
notes: also called FAP(28H1)

Legend:
[1] = target: T1, human Fibroblast Activation Protein (FAP) (human, UniProt Q12884 27-760); assay: SPR (Biacore), simultaneous binding
T1 construct: also called recombinant human FAP; Seprase
T1 sequence (Q12884 27-760 limits assumed): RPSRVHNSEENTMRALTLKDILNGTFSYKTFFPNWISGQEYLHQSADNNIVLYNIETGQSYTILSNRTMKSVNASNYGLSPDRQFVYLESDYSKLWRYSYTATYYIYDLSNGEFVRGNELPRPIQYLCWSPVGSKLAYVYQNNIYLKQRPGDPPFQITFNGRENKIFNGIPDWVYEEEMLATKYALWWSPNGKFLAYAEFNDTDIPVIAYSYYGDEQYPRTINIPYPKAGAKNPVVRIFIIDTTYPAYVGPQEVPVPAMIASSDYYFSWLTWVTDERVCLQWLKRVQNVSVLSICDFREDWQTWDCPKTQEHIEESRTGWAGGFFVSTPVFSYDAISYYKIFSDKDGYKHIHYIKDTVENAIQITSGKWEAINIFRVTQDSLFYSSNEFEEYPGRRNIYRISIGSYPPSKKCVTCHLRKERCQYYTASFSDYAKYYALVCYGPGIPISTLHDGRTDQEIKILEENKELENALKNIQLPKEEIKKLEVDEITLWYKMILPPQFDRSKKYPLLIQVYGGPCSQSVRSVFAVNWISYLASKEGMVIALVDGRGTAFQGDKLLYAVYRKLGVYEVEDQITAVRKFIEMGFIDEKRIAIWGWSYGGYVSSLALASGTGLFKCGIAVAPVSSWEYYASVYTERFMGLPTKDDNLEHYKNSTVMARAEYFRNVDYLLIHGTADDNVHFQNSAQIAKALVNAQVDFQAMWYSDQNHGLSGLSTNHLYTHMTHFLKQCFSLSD

murine FAP = target: T2, murine FAP (murine, UniProt P97321 27-761); assay: SPR (Biacore), simultaneous binding
T2 construct: also called mouse FAP
T2 sequence (P97321 27-761 limits assumed): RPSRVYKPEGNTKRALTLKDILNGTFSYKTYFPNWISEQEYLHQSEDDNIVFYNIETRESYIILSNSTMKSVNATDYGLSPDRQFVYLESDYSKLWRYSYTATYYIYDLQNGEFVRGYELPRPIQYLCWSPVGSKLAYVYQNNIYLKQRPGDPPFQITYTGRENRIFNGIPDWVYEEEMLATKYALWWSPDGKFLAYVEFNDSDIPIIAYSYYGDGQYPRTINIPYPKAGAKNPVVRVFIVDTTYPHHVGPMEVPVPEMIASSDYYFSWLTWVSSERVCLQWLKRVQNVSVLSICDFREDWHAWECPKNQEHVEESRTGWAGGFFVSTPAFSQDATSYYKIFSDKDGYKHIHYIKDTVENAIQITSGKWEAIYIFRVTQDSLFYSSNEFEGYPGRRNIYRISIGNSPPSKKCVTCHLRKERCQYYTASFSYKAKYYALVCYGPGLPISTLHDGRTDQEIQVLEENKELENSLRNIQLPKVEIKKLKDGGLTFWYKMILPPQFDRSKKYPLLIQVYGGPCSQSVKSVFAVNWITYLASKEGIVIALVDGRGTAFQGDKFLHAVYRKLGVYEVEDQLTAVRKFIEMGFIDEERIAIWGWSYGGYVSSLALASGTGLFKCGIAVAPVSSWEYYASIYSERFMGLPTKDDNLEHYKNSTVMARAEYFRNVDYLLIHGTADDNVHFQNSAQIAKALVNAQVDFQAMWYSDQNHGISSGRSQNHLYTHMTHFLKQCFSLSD

[2] = target: T1, human Fibroblast Activation Protein …; assay: Affinity human [nM], IgG format; method not stated

Row | binding result [1] | binding result (murine FAP) | Kd [2] [nM] | Binder
1 | binds | binds | – | B1
2 | binds | binds | – | B2
3 | – | – | 2.6 | B3
